Results published in PMC7857403.

Key:
[1] = biological target: SARS-CoV-2 spike receptor binding domain (SARS-CoV-2) (UniProt P0DTC2)
[2] = biological target: SARS-CoV-2 spike receptor binding domain (SARS-CoV-2) (UniProt P0DTC2); assay: BLI

Q: LCB1 (designed binder) was tested. Which other [1] did it give?
A: 23.5 pM

Q: What about the Kd [2] of the same substance?
A: < 1 nM

Q: With LCB3 (designed binder) as the substance, how does the Kd [2] read?
A: < 1 nM
